Laboratory results taken from the supplement of paper PMC5998384.

System: HeLa Kyoto
Experiment: melting temperature (median over replicates), in situ; higher = more thermally stable
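Also: HeLa Kyoto cells synchronized by double thymidine or nocodazole block, proteins quantified by TMT10plex mass spectrometry, three independent biological replicates.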

Substance | melting temperature (cell cycle stage: mitosis) [°C] | melting temperature (cell cycle stage: G1/S) [°C]
MEPGTNSFRVEFPDFSSTILQKLNQQRQQGQLCDVSIVVQGHIFRAHKAVLAASSPYFCDQVLLKNSRRIVLPDVMNPRVFENILLSSYTGRLVMPAPEIVSYLTAASFLQMWHVVDKCTEVLEGNPTVLCQKLNHGSDHQSPSSSSYNGLVESFELGSGGHTDFPKAQELRDGENEEESTKDELSSQLTEHEYLPSNSSTEHDRLSTEMASQDGEEGASDSAEFHYTRPMYSKPSIMAHKRWIHVKPERLEQACEGMDVHATYDEHQVTESINTVQTEHTVQPSGVEEDFHIGEKKVEAEFDEQADESNYDEQVDFYGSSMEEFSGERSDGNLIGHRQEAALAAGYSENIEMVTGIKEEASHLGFSATDKLYPCQCGKSFTHKSQRDRHMSMHLGLRPYGCGVCGKKFKMKHHLVGHMKIHTGIKPYECNICAKRFMWRDSFHRHVTSCTKSYEAAKAEQNTTEAN [ZBTB43] | 55 | 
MATETVELHKLKLAELKQECLARGLETKGIKQDLIHRLQAYLEEHAEEEANEEDVLGDETEEEETKPIELPVKEEEPPEKTVDVAAEKKVVKITSEIPQTERMQKRAERFNVPVSLESKKAARAARFGISSVPTKGLSSDNKPMVNLDKLKERAQRFGLNVSSISRKSEDDEKLKKRKERFGIVTSSAGTGTTEDTEAKKRKRAERFGIA [SARNP] | 54.3 | 57.9
MDEESLESALQTYRAQLQQVELALGAGLDSSEQADLRQLQGDLKELIELTEASLVSVRKSSLLAALDEERPGRQEDAEYQAFREAITEAVEAPAAARGSGSETVPKAEAGPESAAGGQEEEEGEDEEELSGTKVSAPYYSSWGTLEYHNAMVVGTEEAEDGSAGVRVLYLYPTHKSLKPCPFFLEGKCRFKENCRFSHGQVVSLDELRPFQDPDLSSLQAGSACLAKHQDGLWHAARITDVDNGYYTVKFDSLLLREAVVEGDGILPPLRTEATESDSDSDGTGDSSYARVVGSDAVDSAQSSALCPSLAVVGSDAVDSGTCSSAFAGWEVHTRGIGSRLLTKMGYEFGKGLGRHAEGRVEPIHAVVLPRGKSLDQCVETLQKQTRVGKAGTNKPPRCRGRGARPGGRPAPRNVFDFLNEKLQGQAPGALEAGAAPAGRRSKDMYHASKSAKRALSLRLFQTEEKIERTQRDIRSIQEALARNAGRHSVASAQLQEKLAGAQRQLGQLRAQEAGLQQEQRKADTHKKMTEF [ZGPAT] | 49.3 | 47.5
MNHLPEDMENALTGSQSSHASLRNIHSINPTQLMARIESYEGREKKGISDVRRTFCLFVTFDLLFVTLLWIIELNVNGGIENTLEKEVMQYDYYSSYFDIFLLAVFRFKVLILAYAVCRLRHWWAIALTTAVTSAFLLAKVILSKLFSQGAFGYVLPIISFILAWIETWFLDFKVLPQEAEEENRLLIVQDASERAALIPGGLSDGQFYSPPESEAGSEEAEEKQDSEKPLLEL [STARD3NL] |  | 55.4
MQSREDAPRSRRLASPRGGKRPKKIHKPTVSAFFTGPEELKDTAHSAALLAQLKSFYDARLLCDVTIEVVTPGSGPGTGRLFPCNRNVLAAACPYFKSMFTGGMYESQQASVTMHDVDAESFEVLVDYCYTGRVSLSEANVERLYAASDMLQLEYVREACASFLARRLDLTNCTAILKFADAFGHRKLRSQAQSYIAQNFKQLSHMGSIREETLADLTLAQLLAVLRLDSLDVESEQTVCHVAVQWLEAAPKERGPSAAEVFKCVRWMHFTEEDQDYLEGLLTKPIVKKYCLDVIEGALQMRYGDLLYKSLVPVPNSSSSSSSSNSLVSAAENPPQRLGMCAKEMVIFFGHPRDPFLCCDPYSGDLYKVPSPLTCLAHTRTVTTLAVCISPDHDIYLAAQPRTDLWVYKPAQNSWQQLADRLLCREGMDVAYLNGYIYILGGRDPITGVKLKEVECYNVKRNQWALVAPLPHSFLSFDLMVIRDYLYALNSKRMFCYDPSHNMWLKCVSLKRNDFQEACVFNEEIYCICDIPVMKVYNPVRAEWRQMNNIPLVSETNNYRIIKHGQKLLLITSRTPQWKKNRVTVYEYDIRGDQWINIGTTLGLLQFDSNFFCLSARVYPSCLEPGQSFLTEEEEIPSESSTEWDLGGFSEPDSESGSSSSLSDDDFWVRVAPQ [KBTBD6] | 51.1 | 50.6
MGAKQSGPAAANGRTRAYSGSDLPSSSSGGANGTAGGGGGARAAAAGRFPAQVPSAHQPSASGGAAAAAAAPAAPAAPRSRSLGGAVGSVASGARAAQSPFSIPNSSSGPYGSQDSVHSSPEDGGGGRDRPVGGSPGGPRLVIGSLPAHLSPHMFGGFKCPVCSKFVSSDEMDLHLVMCLTKPRITYNEDVLSKDAGECAICLEELQQGDTIARLPCLCIYHKGCIDEWFEVNRSCPEHPSD [ZNRF2] | 55.1 | 52.7
MTQSVVVQVGQCGNQIGCCFWDLALREHAAVNQKGIYDEAISSFFRNVDTRVVGDGGSISKGKICSLKARAVLIDMEEGVVNEILQGPLRDVFDTKQLITDISGSGNNWAVGHKVFGSLYQDQILEKFRKSAEHCDCLQCFFIIHSMGGGTGSGLGTFLLKVLEDEFPEVYRFVTSIYPSGEDDVITSPYNSILAMKELNEHADCVLPIDNQSLFDIISKIDLMVNSGKLGTTVKPKSLVTSSSGALKKQHKKPFDAMNNIVANLLLNLTSSARFEGSLNMDLNEISMNLVPFPQLHYLVSSLTPLYTLTDVNIPPRRLDQMFSDAFSKDHQLLRADPKHSLYLACALMVRGNVQISDLRRNIERLKPSLQFVSWNQEGWKTSLCSVPPVGHSHSLLALANNTCVKPTFMELKERFMRLYKKKAHLHHYLQVEGMEESCFTEAVSSLSALIQEYDQLDATKNMPVQDLPRLSIAM [TUBE1] | 55.1 | 
MDHSHHMGMSYMDSNSTMQPSHHHPTTSASHSHGGGDSSMMMMPMTFYFGFKNVELLFSGLVINTAGEMAGAFVAVFLLAMFYEGLKIARESLLRKSQVSIRYNSMPVPGPNGTILMETHKTVGQQMLSFPHLLQTVLHIIQVVISYFLMLIFMTYNGYLCIAVAAGAGTGYFLFSWKKAVVVDITEHCH [SLC31A1] | 54.9 | 56.5
MEMSGLSFSEMEGCRNLLGLLDNDEIMALCDTVTNRLVQPQDRQDAVHAILAYSQSAEELLRRRKVHREVIFKYLATQGIVIPPATEKHNLIQHAKDYWQKQPQLKLKETPEPVTKTEDIHLFQQQVKEDKKAEKVDFRRLGEEFCHWFFGLLNSQNPFLGPPQDEWGPQHFWHDVKLRFYYNTSEQNVMDYHGAEIVSLRLLSLVKEEFLFLSPNLDSHGLKCASSPHGLVMVGVAGTVHRGNTCLGIFEQIFGLIRCPFVENTWKIKFINLKIMGESSLAPGTLPKPSVKFEQSDLEAFYNVITVCGTNEVRHNVKQASDSGTGDQV [C3ORF38] | 50.9 | 50.4
MLVTAYLAFVGLLASCLGLELSRCRAKPPGRACSNPSFLRFQLDFYQVYFLALAADWLQAPYLYKLYQHYYFLEGQIAILYVCGLASTVLFGLVASSLVDWLGRKNSCVLFSLTYSLCCLTKLSQDYFVLLVGRALGGLSTALLFSAFEAWYIHEHVERHDFPAEWIPATFARAAFWNHVLAVVAGVAAEAVASWIGLGPVAPFVAAIPLLALAGALALRNWGENYDRQRAFSRTCAGGLRCLLSDRRVLLLGTIQALFESVIFIFVFLWTPVLDPHGAPLGIIFSSFMAASLLGSSLYRIATSKRYHLQPMHLLSLAVLIVVFSLFMLTFSTSPGQESPVESFIAFLLIELACGLYFPSMSFLRRKVIPETEQAGVLNWFRVPLHSLACLGLLVLHDSDRKTGTRNMFSICSAVMVMALLAVVGLFTVVRHDAELRVPSPTEEPYAPEL [MFSD5] | 54.9 | 
FLNC | 55 | 
MPSETPQAEVGPTGCPHRSGPHSAKGSLEKGSPEDKEAKEPLWIRPDAPSRCTWQLGRPASESPHHHTAPAKSPKILPDILKKIGDTPMVRINKIGKKFGLKCELLAKCEFFNAGGSVKDRISLRMIEDAERDGTLKPGDTIIEPTSGNTGIGLALAAAVRGYRCIIVMPEKMSSEKVDVLRALGAEIVRTPTNARFDSPESHVGVAWRLKNEIPNSHILDQYRNASNPLAHYDTTADEILQQCDGKLDMLVASVGTGGTITGIARKLKEKCPGCRIIGVDPEGSILAEPEELNQTEQTTYEVEGIGYDFIPTVLDRTVVDKWFKSNDEEAFTFARMLIAQEGLLCGGSAGSTVAVAVKAAQELQEGQRCVVILPDSVRNYMTKFLSDRWMLQKGFLKEEDLTEKKPWWWHLRVQELGLSAPLTVLPTITCGHTIEILREKGFDQAPVVDEAGVILGMVTLGNMLSSLLAGKVQPSDQVGKVIYKQFKQIRLTDTLGRLSHILEMDHFALVVHEQIQYHSTGKSSQRQMVFGVVTAIDLLNFVAAQERDQK [CBS] | 55.8 | 55
MLAGAGRPGLPQGRHLCWLLCAFTLKLCQAEAPVQEEKLSASTSNLPCWLVEEFVVAEECSPCSNFRAKTTPECGPTGYVEKITCSSSKRNEFKSCRSALMEQRLFWKFEGAVVCVALIFACLVIIRQRQLDRKALEKVRKQIESI [JTB] | 53.4 | 
MAHAHIQGGRRAKSRFVVCIMSGARSKLALFLCGCYVVALGAHTGEESVADHHEAEYYVAAVYEHPSILSLNPLALISRQEALELMNQNLDIYEQQVMTAAQKDVQIIVFPEDGIHGFNFTRTSIYPFLDFMPSPQVVRWNPCLEPHRFNDTEVLQRLSCMAIRGDMFLVANLGTKEPCHSSDPRCPKDGRYQFNTNVVFSNNGTLVDRYRKHNLYFEAAFDVPLKVDLITFDTPFAGRFGIFTCFDILFFDPAIRVLRDYKVKHVVYPTAWMNQLPLLAAIEIQKAFAVAFGINVLAANVHHPVLGMTGSGIHTPLESFWYHDMENPKSHLIIAQVAKNPVGLIGAENATGETDPSHSKFLKILSGDPYCEKDAQEVHCDEATKWNVNAPPTFHSEMMYDNFTLVPVWGKEGYLHVCSNGLCCYLLYERPTLSKELYALGVFDGLHTVHGTYYIQVCALVRCGGLGFDTCGQEITEATGIFEFHLWGNFSTSYIFPLFLTSGMTLEVPDQLGWENDHYFLRKSRLSSGLVTAALYGRLYERD [BTD] | 58 | 
MSKAHPPELKKFTDKKFSLKLNGGRHVQGILRGFDPFMNLVIDECVEMATSGQQKNIGMVEIRGNSIIMLEALERV [SNRPGP15] | 54 | 53.6
MASRAGPRAAGTDGSDFQHRERVAMHYQMSVTLKYEIKKLIYVHLVIWLLLVAKMSVGHLRLLSHDQVAMPYQWEYPYLLSILPSLLGLLSFPRNNISYLVLSMISMGLFSIAPLIYGSMEMFPAAQQLYRHGKAYRFLFGFSAVSIMYLVLVLAVQVHAWQLYYSKKLLDSWFTSTQEKKHK [JAGN1] | 54.8 | 
MAMEGYWRFLALLGSALLVGFLSVIFALVWVLHYREGLGWDGSALEFNWHPVLMVTGFVFIQGIAIIVYRLPWTWKCSKLLMKSIHAGLNAVAAILAIISVVAVFENHNVNNIANMYSLHSWVGLIAVICYLLQLLSGFSVFLLPWAPLSLRAFLMPIHVYSGIVIFGTVIATALMGLTEKLIFSLRDPAYSTFPPEGVFVNTLGLLILVFGALIFWIVTRPQWKRPKEPNSTILHPNGGTEQGARGSMPAYSGNNMDKSDSELNSEVAARKRNLALDEAGQRSTM [CYBRD1] | 53.6 | 
MGLLDRLSVLLGLKKKEVHVLCLGLDNSGKTTIINKLKPSNAQSQNILPTIGFSIEKFKSSSLSFTVFDMSGQGRYRNLWEHYYKEGQAIIFVIDSSDRLRMVVAKEELDTLLNHPDIKHRRIPILFFANKMDLRDAVTSVKVSQLLCLENIKDKPWHICASDAIKGEGLQEGVDWLQDQIQTVKT [ARL6] | 50.3 | 
